The results in this text go back to article PMC7351999, “Structure of the DOCK2−ELMO1 complex provides insights into regulation of the auto-inhibited state” (Nature Communications, 2020).

Data set [1] concerns the molecule itself. The data set can be described thus: SEC; co-expressed and co-purified DOCK2–ELMO1 complex, wild type and dimer mutant; gel filtration buffer 50 mM Tris HCl (pH 8.0), 200 mM NaCl, 2 mM DTT; Superose 6 / Superdex 200 5/150GL.
The target in data set [2] is T1, human RHOG (amino acids 1–179) (human, UniProt P84095 1-179).
T1 construct: RHOG, human, GeneID 391, amino acids 1–179; Loaded with GMPPNP (or GDP) as told for each assay; also called wild-type RHOG; source: E. coli BL21 (DE3) CodonPlus, purified (nickel-nitrilotriacetic acid, thrombin cleavage, Superdex 75)
T1 sequence (P84095 1-179): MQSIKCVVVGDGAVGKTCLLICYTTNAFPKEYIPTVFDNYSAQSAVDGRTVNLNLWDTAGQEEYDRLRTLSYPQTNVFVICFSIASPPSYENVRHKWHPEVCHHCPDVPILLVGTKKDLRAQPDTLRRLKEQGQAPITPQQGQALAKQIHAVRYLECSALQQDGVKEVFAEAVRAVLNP
The data set is described as follows: ITC; ELMO2^RBD injected into the cell containing GMPPNP-loaded (activated) RHOG; 20 mM Tris-HCl (pH 7.5), 100 mM NaCl, 1 mM DTT; 25 °C. As to conditions: both partners purified.

Another data set concerns the target T2, RHOG D38A mutant (human, UniProt P84095 1-179, D38A).
T2 construct: RHOG, human, GeneID 391, amino acids 1–179 with D38A; also called RHOG Asp38 to Ala mutant; source: E. coli BL21 (DE3) CodonPlus, purified (nickel-nitrilotriacetic acid, thrombin cleavage, Superdex 75)
Described as above. The following applies: both partners purified.

T2 sequence (P84095 1-179 D38A): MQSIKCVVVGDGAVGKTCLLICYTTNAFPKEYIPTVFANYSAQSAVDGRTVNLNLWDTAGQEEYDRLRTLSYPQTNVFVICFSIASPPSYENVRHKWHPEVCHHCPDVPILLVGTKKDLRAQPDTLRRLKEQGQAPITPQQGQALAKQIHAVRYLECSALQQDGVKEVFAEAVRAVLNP

B1: human DOCK2 (dedicator of cytokinesis 2) (natural protein)
chain: not shown
notes: DOCK2, human; Tag removed with TEV protease; samples for cryo-EM were cross-linked with glutaraldehyde; also called DOCK2^WT; source: High Five insect cells (baculovirus), co-expressed with ELMO1, purified (Strep-Tactin, Resource Q, Superose 6); not shown: double StrepII, C-terminal, cleaved
Turning to B1, the “stoichiometry N” value in data set [1] was 2.

B2: N-terminal RBD domain of murine ELMO2 (amino acids 1–80) (domain or fragment, UniProt Q8BHL5 1-80, looked up)
chain: MPPPSDIVKVAIEWPGANAQLLEIDQKRPLASIIKEVCDGWSLPNPEYYTLRYADGPQLYVTEQTRNDIKNGTILQLAVS
notes: also called ELMO2^RBD; wild-type ELMO2^RBD; source: E. coli BL21 (DE3) CodonPlus, purified (GSH resin, thrombin cleavage on the resin, Superdex 75); not shown: GST, N-terminal, cleaved
Turning to B2, the Kd in data set [2] stood at 7.8 µM; with RHOG D38A mutant, 9 µM.
